Data on 28 molecules can be found in US20260116963A1 (GENERATE BIOMEDICINES, published 2026).

Positions count from the first letter of the chain named. Where only a bound is given, the exact number is not on record here.

To fix the notation:
B1: AbO (antibody, human IgG1, kappa, V domains shown)
VH: QVTLRESGPALVKPTQTLTLTCTVSGYSLSAYSVNWIRQPPGKALEWLAMIWGDGKIVYNSALKSRLTISKDTSKNQVVLTMTNMDPVDTATYYCAGDGYFPYAMDVWGQGSLVTVSS
VL: DIVMTQSPDSLSVSLGERATINCRASKSVDYYGHSYMHWYQQKPGQPPKLLIYLASNLESGVPDRFSGSGSGTDFTLTISSLQAEDVAVYYCQQNNEDPRTFGGGTKVEIKR
B2: AbN (antibody, human IgG1, kappa, V domains shown)
VH: B1 VH with Y27A, F101Y, V107N
VL: B1 VL with K27E
B3: AbM (antibody, human IgG1, kappa, V domains shown)
VH: B1 VH with Y27A, V107N
VL: B1 VL with H34R
B4: AbD (antibody, human IgG1, kappa, V domains shown)
VH: B1 VH with Y27S, I57V, V107N
VL: B1 VL with Y31S, H34N
B5: AbK (antibody, human IgG1, kappa, V domains shown)
VH: B1 VH with Y27S, A31R, F101Y, V107N
VL: B1 VL with K27Q, Y31S, H34N
B6: AbL (antibody, human IgG1, kappa, V domains shown)
VH: B1 VH with Y27F, A31R, F101Y, V107N
VL: B1 VL with Y31S, H34R
B7: AbP (antibody, human IgG1, kappa, V domains shown)
VH: B1 VH with Y27A, I57V, V107H
VL: B1 VL with Y31S, H34N, L54W
B8: AbE (antibody, human IgG1, kappa, V domains shown)
VH: B1 VH with Y27A, V107N
VL: B1 VL with Y31S, L54W
B9: AbH (antibody, human IgG1, kappa, V domains shown)
VH: B1 VH with Y27A, A31R, F101Y, V107N
VL: B1 VL with Y31S, H34N, L54R
B10: AbJ (antibody, human IgG1, kappa, V domains shown)
VH: B1 VH with Y27A, G55R, I57K, V107L
VL: B1 VL with Y31S, L54W
B11: AbI (antibody, human IgG1, kappa, V domains shown)
VH: B1 VH with Y27A, A31R, Y100F, F101Y, V107N
VL: B1 VL with Y31S, H34N
B12: AbF (antibody, human IgG1, kappa, V domains shown)
VH: B1 VH with Y27A, A31R, G55A, V107N
VL: B1 VL with K27E, Y31S, H34N
B13: AbA (antibody, human IgG1, kappa, V domains shown)
VH: B1 VH with Y27F, F101Y, V107N
VL: B1 VL with Y31S, H34R
B14: AbC (antibody, human IgG1, kappa, V domains shown)
VH: B1 VH with Y27F, F101Y, V107Y
VL: B1 VL with H34N
B15: AbB (antibody, human IgG1, kappa, V domains shown)
VH: B1 VH with Y27A, F101Y, V107N
VL: B1 VL
B16: NB-13 (antibody, human IgG4 S228P, kappa)
heavy: QVTLRESGPALVKPTQTLTLTCTVSGFSLSAYSVNWIRQPPGKALEWLAMIWGDGKIVYNSALKSRLTISKDTSKNQVVLTMTNMDPVDTATYYCAGDGYYPYAMDNWGQGSLVTVSSASTKGPSVFPLAPCSRSTSESTAALGCLVKDYFPEPVTVSWNSGALTSGVHTFPAVLQSSGLYSLSSVVTVPSSSLGTKTYTCNVDHKPSNTKVDKRVESKYGPPCPPCPAPEFLGGPSVFLFPPKPKDTLYITREPEVTCVVVDVSQEDPEVQFNWYVDGVEVHNAKTKPREEQFNSTYRVVSVLTVLHQDWLNGKEYKCKVSNKGLPSSIEKTISKAKGQPREPQVYTLPPSQEEMTKNQVSLTCLVKGFYPSDIAVEWESNGQPENNYKTTPPVLDSDGSFFLYSRLTVDKSRWQEGNVFSCSVMHEALHNHYTQKSLSLSLGK
light: DIVMTQSPDSLSVSLGERATINCRASKSVDSYGNSFMHWYQQKPGQPPKLLIYLASNLESGVPDRFSGSGSGTDFTLTISSLQAEDVAVYYCQQNNEDPRTFGGGTKVEIKRTVAAPSVFIFPPSDEQLKSGTASVVCLLNNFYPREAKVQWKVDNALQSGNSQESVTEQDSKDSTYSLSSTLTLSKADYEKHKVYACEVTHQGLSSPVTKSFNRGEC
B17: NB-3 (antibody, human IgG4 S228P, kappa, V domains shown)
VH: B1 VH with Y27A, A31S, D98E, F101Y
VL: B1 VL with Y31S, H34N
B18: NB-7 (antibody, human IgG4 S228P, kappa, V domains shown)
VH: B1 VH with Y27F, F101Y, V107N
VL: B1 VL with Y31S, H34N, Y36F, R100L
B19: NB-4 (antibody, human IgG4 S228P, kappa, V domains shown)
VH: B1 VH with Y27A, F101Y, V107N
VL: B1 VL with Y31S, H34N, Y36F, R100L
B20: NB-1 (antibody, human IgG4 S228P, kappa, V domains shown)
VH: B1 VH with Y27A, D98L, F101Y, V107L
VL: B1 VL with Y31S, H34N, Y36F
B21: NB-2 (antibody, human IgG4 S228P, kappa, V domains shown)
VH: B1 VH with Y27F, D98L, F101Y, V107N
VL: B1 VL with Y31S, H34N, Y36F
B22: NB-9 (antibody, human IgG4 S228P, kappa, V domains shown)
VH: B1 VH with Y27F, D54S, F101Y, V107N
VL: B1 VL with Y31S, H34N, Y36F
B23: NB-11 (antibody, human IgG4 S228P, kappa, V domains shown)
VH: B1 VH with Y27A, K56T, V107N
VL: B1 VL with Y31S, Y36F
B24: NB-6 (antibody, human IgG4 S228P, kappa, V domains shown)
VH: B1 VH with Y27A, W52S, F101Y, V107N
VL: B1 VL with Y31S, H34N, Y36F
B25: NB-8 (antibody, human IgG4 S228P, kappa, V domains shown)
VH: B1 VH with Y27A, D98E, F101Y, V107Y
VL: B1 VL with Y31S, H34N, Y36F
B26: NB-5 (antibody, human IgG4 S228P, kappa, V domains shown)
VH: B1 VH with Y27A, D54S, F101Y, V107N
VL: B1 VL with Y31S, H34N, Y36F
B27: NB-12 (antibody, human IgG4 S228P, kappa, V domains shown)
VH: B1 VH with Y27A, F101Y, Y103W, V107N
VL: B1 VL with K27Q, Y31S, H34N, Y36F
B28: NB-10 (antibody, human IgG4 S228P, kappa, V domains shown)
VH: B1 VH with Y27A, F101Y, V107N
VL: B1 VL with H34N, Y36F, R100L

As a reminder, the Kd is the constant that tells how readily two partners part at equilibrium. By koff is commonly meant a measure of how fast the partners let go of each other. In general, kon refers to the second-order rate constant of association.

T1 sequence (P35225 other isoform, or with tags, fused parts or gaps limits assumed): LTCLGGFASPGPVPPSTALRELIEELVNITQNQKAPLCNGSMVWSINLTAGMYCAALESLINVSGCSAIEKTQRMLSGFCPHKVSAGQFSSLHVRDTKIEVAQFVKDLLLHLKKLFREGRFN

One test addresses T1, human IL-13 (human, UniProt P35225 25-146, limits assumed).
T1 construct: The KinExA antigen was detected with an anti-HIS IgG, so it probably carried a HIS tag; also called Interleukin-13; hIL-13
The experiment in a line: SPR (Biacore 8K+), antibody captured, human IL-13 as analyte, 37 C; less than 5% decay in 5,400 s, KD estimated.
Regarding B1, the Kd was less than 0.015 nM.
On the same count and under the same terms, then B2, with less than 0.015 nM; and B3, with less than 0.015 nM; and B4, with less than 0.015 nM.
On the same count and under the same terms, under B5 stands less than 0.015 nM; under B6, less than 0.015 nM.
On to B7, for which the Kd is less than 0.015 nM.
Same read-out and setting: under B8 stands less than 0.015 nM; under B9, less than 0.015 nM.
The same measure, in the same setting: under B10 stands less than 0.015 nM; under B11, less than 0.015 nM.
Regarding B12, the Kd was less than 0.015 nM.

A further test deals with T1, human IL-13. In words: cell-based or functional assay.
On to B13, for which the “IC50, HEK-Blue IL-13Ra1/IL-4Ra STAT6-SEAP reporter assay” value turned out to be 0.123 µg/mL.
B1: the “IC50, HEK-Blue IL-13Ra1/IL-4Ra STAT6-SEAP reporter assay” value turned out to be 0.165 µg/mL.
On the same count and under the same terms, under B2 stands 0.14 µg/mL; under B3, 0.136 µg/mL.
Still for that read-out and setting: then B4, with 0.161 µg/mL; and B5, with 0.172 µg/mL.
On the same count and under the same terms, under B6 stands 0.32 µg/mL; under B7, 0.152 µg/mL; under B14, 0.118 µg/mL.
Turning to B8, the “IC50, HEK-Blue IL-13Ra1/IL-4Ra STAT6-SEAP reporter assay” value was found to be 0.118 µg/mL.
With B15, the “IC50, HEK-Blue IL-13Ra1/IL-4Ra STAT6-SEAP reporter assay” value came to 0.132 µg/mL.
As to B9, the “IC50, HEK-Blue IL-13Ra1/IL-4Ra STAT6-SEAP reporter assay” value is 0.107 µg/mL.
The same measure, in the same setting: under B10 stands 0.167 µg/mL.
The same measure, in the same setting: under B11 stands 0.223 µg/mL.
Take B12: the “IC50, HEK-Blue IL-13Ra1/IL-4Ra STAT6-SEAP reporter assay” value turned out to be 0.126 µg/mL.

The target of the next test is T1, human IL-13. In words: SPR (Biacore 8K+), antibody captured on anti-human pAb CM4 chip, human IL-13 0.6-10 nM as analyte, 37 C, 1:1 fit. Background: SPR reads the build-up and loss of mass on a sensor chip optically.
For B13, the Kd is 0.0162 nM, the koff is 1.11e-05 s⁻¹ and the kon turned out to be 847000 M⁻¹ s⁻¹.
Turning to B14, the dissociation constant Kd was 0.0273 nM, the off-rate (koff) was 2.98e-05 s⁻¹ and the kon was determined as 1.09e+06 M⁻¹ s⁻¹.
Regarding B15, the Kd amounted to 0.0215 nM, the koff is 1.02e-05 s⁻¹ and the kon was determined as 552000 M⁻¹ s⁻¹.

The next test concerns the target T1, human IL-13. The experiment in a line: SPR array (Carterra LSA), antibody captured on anti-human pAb HC30M chip, human IL-13 0.05-100 nM as analyte, 25 C, 1:1 fit.
B16 displayed a Kd of less than 0.1 nM.
B17 registered a Kd of 1.89 nM, a koff of 0.00047 s⁻¹ and a kon of 290000 M⁻¹ s⁻¹.
B18: binding was put at a Kd of 8.35 nM, the koff was 0.000827 s⁻¹ and the kon came out at 100000 M⁻¹ s⁻¹.
The corresponding values for B19 are 13.6 nM, 0.000987 s⁻¹ and 74000 M⁻¹ s⁻¹.
The corresponding values for B20 are 5.21 nM, 0.000601 s⁻¹ and 117000 M⁻¹ s⁻¹.
Molecule B21 returned a Kd of 6.67 nM, a dissociation rate constant (koff) of 0.000618 s⁻¹ and a kon of 93000 M⁻¹ s⁻¹.
On to B22, for which the Kd was 2.41 nM, the koff amounted to 0.000734 s⁻¹ and the kon was 305000 M⁻¹ s⁻¹.
Consider B23, for which the Kd came out at 0.97 nM, the off-rate constant (koff) was 0.000135 s⁻¹ and the kon came to 139000 M⁻¹ s⁻¹.
In the case of B24, the Kd was 3.34 nM, the koff worked out at 0.000855 s⁻¹ and the kon stood at 258000 M⁻¹ s⁻¹.
The molecule B25 had a Kd of 2.56 nM, a koff of 0.000674 s⁻¹ and a kon of 259000 M⁻¹ s⁻¹.
Molecule B26 gave an equilibrium dissociation constant (Kd) of 4.24 nM, a koff of 0.00127 s⁻¹ and an on-rate constant (kon) of 303000 M⁻¹ s⁻¹.
The corresponding values for B27 are 6.09 nM, 0.000711 s⁻¹ and 117000 M⁻¹ s⁻¹.
For B28 the same measures were 13.6 nM, 0.000805 s⁻¹ and 62000 M⁻¹ s⁻¹.
